In article PMC3950521 (mBio, 2014):

Experiments:
Assay in all cases: SAXS
[1] = molecular target: choline-binding domain of wt-LytA (LytA^CBD) (Streptococcus pneumoniae TIGR4)
[2] = molecular target: full-length prophage LytA (prophage of Streptococcus pneumoniae Hungary 19A-6)
SAXS = molecular target: the molecule itself

Row | Molecule | stoichiometry N (SAXS) | other results
1 | choline-binding domain of wt-LytA (LytA^CBD) (domain or fragment) |  | stoichiometry N [1]: 2
2 | full-length prophage LytA (enzyme) |  | stoichiometry N [2]: 2
3 | full-length wild-type LytA (N-acetylmuramoyl-L-alanine amidase, major autolysin of Streptococcus pneumoniae) (enzyme, Streptococcus pneumoniae TIGR4, UniProt P06653 1-318, looked up) MEINVSKLRTDLPQVGVQPYRQVHAHSTGNPHSTVQNEADYHWRKDPELGFFSHIVGNGCIMQVGPVDNGAWDVGGGWNAETYAAVELIESHSTKEEFMTDYRLYIELLRNLADEAGLPKTLDTGSLAGIKTHEYCTNNQPNNHSDHVDPYPYLAKWGISREQFKHDIENGLTIETGWQKNDTGYWYVHSDGSYPKDKFEKINGTWYYFDSSGYMLADRWRKHTDGNWYWFDNSGEMATGWKKIADKWYYFNEEGAMKTGWVKYKDTWYYLDAKEGAMVSNAFIQSADGTGWYYLKPDGTLADKPEFTVEPDGLITVK | 2 | 
4 | recombinant full-length His-tagged LytA, wt-LytA(N-His6) (enzyme, Streptococcus pneumoniae TIGR4, UniProt P06653 1-318, looked up) MEINVSKLRTDLPQVGVQPYRQVHAHSTGNPHSTVQNEADYHWRKDPELGFFSHIVGNGCIMQVGPVDNGAWDVGGGWNAETYAAVELIESHSTKEEFMTDYRLYIELLRNLADEAGLPKTLDTGSLAGIKTHEYCTNNQPNNHSDHVDPYPYLAKWGISREQFKHDIENGLTIETGWQKNDTGYWYVHSDGSYPKDKFEKINGTWYYFDSSGYMLADRWRKHTDGNWYWFDNSGEMATGWKKIADKWYYFNEEGAMKTGWVKYKDTWYYLDAKEGAMVSNAFIQSADGTGWYYLKPDGTLADKPEFTVEPDGLITVK | 2 | 
